B1: 24A1_mIgG1: recombinant mouse IgG1 antibody with 24A1 variable regions (antibody, V domains shown)
VH: EVQLVESGGGLVQPKGSLKLSCAASGFTFNVYDMHWVRQAPGEGLEWVARIRSKSSNYATNYADSVKDRFTISRDDSQSMLYLQMNNLQTEDTAIYYCVRDGSHYYYALDYWGQGTSVTVSS
VL: DIQMTQTTSSLSASLGDRVTISCRASQDINNYLNWYQQKLDGTVKLLIYYSSRLHSGVPSRFSGSGSGTDYSLTISNLEQEDIATYFCQQGKMFPWTFGGGTKLEIK

Experiments:
[1] = Test 7: in vivo ocular toxicity test, TB staining of eye sections; set-up: species or system Balb/c mice; details: eyes removed day 29, FIG. 17
Experimental: The ocular toxicity test was carried out using Balb/c mice. The mice intravenously received “20A77_mIgG1”, “24A1_mIgG1” or an isotype control antibody mIgG1 at a dose of 10 mg/kg at a frequency of twice a week. As a positive control of ocular toxicity, mice orally received a MerTK small molecule inhibitor UNC569 at a dose of 150 mg/kg for 10 days. At day 29 after the first administration, eyes were removed, fixed with a Karnovsky's fixative and then subjected to embedding in a resin, preparation of sections and toluidine blue staining (hereinafter also referred to as “TB staining”) carried out by Applied Medical Research Laboratory.

[2] = administration to mice; Non-Patent Document 3; cited from earlier work
[3] = test system: mouse colon cancer cell line CT26; experiment: Test 4: efficacious dosage in CT26 syngeneic tumor model; format: in vivo, Balb/c mice; details: vs solvent control
Experimental: (§1) CT26 cells (5×10^6 cells per mouse) were subcutaneously transplanted to Balb/c mice at the right flank. After 5 days of the tumor transplantation, the mice were divided into groups and an isotype control antibody mIgG2a and “20A77_mIgG2a” were respectively intraperitoneally administered at a dose of 10 mg/kg at a frequency of twice a week. After the administration, the tumor size was measured at a frequency of twice a week until day 19 after the tumor transplantation. The tumor size was calculated from the equation below with the minor axis and the major axis of the tumor measured using calipers:
On the basis of the procedures indicated below, anti-tumor effects of “20A77_mIgG1” and “24A1_mIgG1” according to the dosage thereof were evaluated. As “Test 3” above, a syngeneic tumor model using the mouse colon cancer cell line CT26 (ATCC) was used for the evaluation.
In the “20A77_mIgG1” administration group, a solvent (1% histidine buffer, pH 6.0) and “20A77_mIgG1” were intraperitoneally administered at a dose of 3, 10 or 30 mg/kg at a frequency of twice a week. […] The tumor size was measured at a frequency of twice a week until day 19 and 22 after the tumor transplantation for the “20A77_mIgG1” and “24A1_mIgG1” administration groups, respectively.

[4] = test system: mouse colon cancer cell line CT26; experiment: Test 5: combined administration with anti-PD-1 antibody in CT26 syngeneic tumor model; format: in vivo, Balb/c mice; details: 5 mg/kg plus anti-mouse PD-1 antibody 29F.1A12 0.3 mg/kg, twice a week until day 19; FIGS. 11 and 12
Experimental: as §1
On the basis of the procedures indicated below, anti-tumor effects of combined use of each of “20A77_mIgG1” and “24A1_mIgG1” and an anti-PD-1 antibody were evaluated. As “Test 3” above, a syngeneic tumor model using the mouse colon cancer cell line CT26 (ATCC) was used for the evaluation. Anti-PD-1 antibodies are known to have anti-tumor effects.
The administration groups received the antibodies indicated below at a frequency of twice a week. […]

Molecule	TB-positive granules in the retinal pigment epithelium ([1]; positive control, 150 mg/kg oral for 10 days)	ocular toxicity: toluidine blue-positive granules and vacuoles in photoreceptor [2]	tumor growth suppressing effect ([3]; 5 mg/kg intraperitoneal twice a week, until day 22, FIGS. 9 and 10)	tumor growth suppressing effect ([3]; 30 mg/kg intraperitoneal twice a week, day 19 (20A77_mIgG1) or day 22 (24A1_mIgG1))	anti-tumor effects of combined use with anti-PD-1 antibody [4]	TB-positive granules in the retinal pigment epithelium ([1]; 10 mg/kg intravenous twice a week)
CCCCNc1ncc2c(-c3ccc(F)cc3)nn(CC3CCC(N)CC3)c2n1 (stereo not drawn) [UNC569, reference compound]	increased TB-positive granules	increased toluidine blue-positive granules and vacuoles in photoreceptor, resulting in ocular toxicity	–	–	–	–
B1	–	–	significant tumor growth suppression	significant tumor growth suppression	had enhanced anti-tumor effects	no increase in TB-positive granules was observed

Source: patent US20250326862A1, “Antibody or Fragment Thereof Binding Specifically to Mertk, and Anti-Tumor Agent” (Chiome Bioscience Inc., priority 2021, published 2025)
